Source: patent US20050049403A1 (CAMBRIDGE ANTIBODY TECHNOLOGY, published 2005)

Key:
[1] = molecular target: irrelevant peptide …; test: BIACore, peptide at 745 µM (1 mg/ml) over immobilised 6B1 IgG4 (5000RU)
recombinant human TGFβ2 [2] = molecular target: T1, recombinant human TGFβ2 (human, UniProt P61812 303-414); test: cell-based or functional assay
T1 sequence (looked up): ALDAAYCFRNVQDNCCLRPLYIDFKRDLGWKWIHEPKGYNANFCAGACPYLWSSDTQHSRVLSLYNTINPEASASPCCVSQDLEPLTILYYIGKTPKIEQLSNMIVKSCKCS

recombinant human TGFβ2 [3] = molecular target: T1, recombinant human TGFβ2; test: BIAcore 2000, antigen immobilised, antibody as analyte
Protocol: The immobilisation of ligand is automated by the BIACore 2000 machine, and all steps are carried out in the autosampler or in the flowcell, on the dextran surface of the chip. The buffer used throughout the immobilisation procedure, and the analysis of samples is Hepes-buffered saline (HBS) with a surfactant (Pharmacia Biosensor). The chips (Pharmacia, CM5), have dextran coating on a thin layer of gold. NHS at 100 mM and EDC at 400 mM are mixed by the autosampler, and then a fixed volume is injected over the flowcell surface. This is followed by an injection of antigen in a suitable buffer. In the case of TGFβ, a surface of the correct density was given by using 25-30 μg/ml solution of TGFβ2 (AMS) OR TGFβ3 (R & D systems) in 10 mM acetate. After injection of the ligand, the chip is blocked using 1M ethanolamine. The total amount of TGFβ bound was assessed from the total increase in resonance units over this period.
To determine the kinetic parameters, a series of dilutions of the antibody samples was made in HBS from about 500 μg/ml down to less than 1 μg/ml, usually through doubling dilutions. After the antibody has been injected over the antigen surface, the surface is washed with HBS, then regenerated by stripping off the bound antibody with a pulse of 100 mM HCl. At the higher concentrations of antibody the antigen on the chip surface is saturated, and the off rate is determined on washing with buffer in the dissociation phase. For determination of the on-rate, lower concentrations of antibody are used, giving a linear binding phase in the sensorgram, allowing kₒₙ determination.
6B1 IgG4 was purified from the GS/NS0 cell line of Example 10 as in Example 2. 6B1 single chain Fv was expressed intracellularly in E. coli, refolded in vitro (using the methodology of WO94/18227), and purified to give a homogeneous product. The values of kₒₙ and koff were determined for 6B1 IgG4 for binding to both TGFβ2 and TGFβ3, and for the single-chain Fv 6B1 for binding to TGFβ2. The dissociation constant was calculated by dividing koff by kₒₙ.

B1: 6B1 IgG4 (antibody, V domains shown)
VH: EVQLVESGGGVVQPGRSLRLSCAASGFTFSSYGMHWVRQAPGKGLEWVAVIWYDGSNKYYADSVKGRFTISRDNSKNTLYLQMDSLRAEDTAVYYCGRTLESSLWGQGTLVTVSS
VL: SSELTQDPAVSVALGQTVRITCQGDSLRSYYASWYQQKPGQAPVLVIYGKNNRPSGIPDRFSGSSSGNTASLTITGAQAEDEADYYCNSRDSSSTHRGVFGGGTKLTVLG
notes: Whole antibody: human gamma 4 and human lambda constant regions; FITC-labelled in the human tissue study; also called antibody 6B1
- amount of binding to 6B1 IgG4 surface, RU [1]: 60.9 RU
- IC50 in TF1 neutralisation assay, 6B1 IgG4 from GS/NS0 cell line 5D8-2A6 (recombinant human TGFβ2 [2]): 1.8 nM
- koff (recombinant human TGFβ2 [3]): 0.000336 s⁻¹
- kon (recombinant human TGFβ2 [3]): 384000 M⁻¹ s⁻¹
